Experimental data taken from the supplement of paper PMC10567573.

B1: APBB1IP (parent)
chain: PPEPLSQVSMWDQRWQDHQPLLPI

Variants of: B1
Assay: protein stability index of a GFP-peptide fusion (GPS, HEK-293T) (PSI 1-6); higher = more stable
Conditions: c terminus: a fixed tail appended
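Also: lentivirally expressed fusions sorted by FACS into six bins by GFP to DsRed ratio, PSI derived from sequencing read proportions per bin multiplied by bin number.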

Protein stability index, by site and new letter:
W11: R 3.4, E 4.18, M 3.57, S 4.04, N 4.06, I 3.1, P 3.08, D 4.4, F 3.55, A 4.11, L 3.77, Y 3.51, G 4.18, T 3.73, Q 4.25, C 3.16, H 3.83, V 3.9
L21: A 3.88, C 3.4
M10: W 3.12, Q 3.2, H 3.42, R 3.37, A 3.52, G 3.3, E 3.98, I 2.79, Y 2.51, L 3.16, K 2.92, N 3.54, C 3.52, P 3.87, T 2.87, V 3.36, S 3.35, F 2.94, D 4.12
H18: W 3.02, N 2.97, V 2.83, P 3.34, Q 3.01, C 3.12, A 2.79, L 3.09, R 2.74, T 3.44, I 2.69, G 3.55, S 3.11, D 4.05, K 3.1, Y 3.2, E 4.14, F 2.4, M 2.71
S6: F 2.23, K 2.81, Q 3.28, A 3.09, P 3.65, D 3.45, M 2.82, T 2.76, C 2.46, E 3.15, L 2.85, V 2.73, I 2.71, R 3.36, G 2.9, Y 2.09, H 2.71, N 2.93
D12: F 2.13, V 2.23, N 2.82, C 2.34, E 2.64, K 3.37, Q 2.11, A 2.64, I 2.48, H 2.6, P 2.89, W 1.85, Y 2.31, T 3.07, G 2.15, R 2.9, L 2.22, M 2.33, S 2.73
R14: A 2.75, C 2.79, W 3.29, Q 2.88, E 3.74, F 2.86, P 2.9, L 3.01, T 3.39, D 3.59, G 3.98, V 2.92, N 3.86, I 3.14, S 3.84, M 2.68, Y 3.12, K 3.06, H 3.19
P4: N 2.93, H 3.22, M 2.79, E 3.34, K 2.55, A 3.05, Q 3.34, I 2.52, F 2.44, S 2.61, T 3.1, R 2.55, V 2.61, W 2.3, Y 2.87, C 2.51, G 2.79, L 2.54, D 3.56
V8: D 4.03, K 3.25, S 3.52, F 2.51, A 3.02, G 3.38, R 2.83, T 2.9, Q 2.9, Y 2.57, W 2.21, P 3.12, E 3.48, M 3.22, L 2.77, N 3.36, I 3.25, H 3.21, C 2.22
D17: A 2.5, M 3.24, N 3.15, L 3.26, H 2.44, E 2.97, W 2.79, P 3.23, G 2.81, S 2.53, T 2.57, I 2.57, K 2.78, C 2.6, R 2.91, F 2.08, Q 2.57, V 2.54, Y 2.25
W15: D 4.34, Y 3.14, K 4.05, I 3.65, T 4.39, H 4.17, P 3.9, Q 4.36, F 3.62, V 3.93, N 3.7, C 3.39, E 4.03, G 3.62, M 4.02, L 3.28, S 3.95, A 3.88, R 3.41
E3: R 3.18, Q 2.77, L 3.07, V 3.46, S 3.01, N 3.56, I 2.48, K 3.84, Y 2.27, M 2.94, W 2.32
P20: Q 3.26, A 2.75, D 3.33, Y 2.33, K 2.05, E 3.29, V 2.91, H 3.23, G 3.38, W 2.33, M 3.03, C 2.95, F 2.37, I 2.77, N 3.14, T 2.84, R 2.8, L 2.61, S 3.37
L5: Y 2.71, W 2.2, N 3.31, F 3, G 3.05, M 2.88, A 3.74, K 2.71, Q 3.53, E 3.57, V 2.99, T 3.19, P 3.88, H 3.54, S 3.26, R 3.62, D 3.58, C 3.75, I 2.72
S9: Q 3.28, N 3.25, Y 2.57, F 2.95, R 3.27, K 3.09, P 3.16, E 3.56, A 3.4, H 3.22, D 3.55, T 2.99, V 3.35, G 3.35, M 3.27, I 2.86, W 2.62, L 2.84, C 2.34
Q13: A 2.54, M 3.46, L 2.16, F 2.4, C 2.56, V 2.49, R 2.6, G 2.63, T 2.78, Y 2.51, N 3.5, H 2.79, I 2.72, D 3.51, E 3.56, S 3.29, W 2.91, P 2.77, K 2.76
Q19: W 2.21, D 3.74, R 3, I 2.47, F 2.89, E 3.48, A 3.04, T 3.02, H 2.48, V 2.33, S 2.31, Y 2.44, C 2.61, G 3.33, N 3, M 2.72, P 2.63, L 2.83, K 2.87
Q16: E 2.92, M 2.99, P 3.84, C 2.6, A 2.23, I 2.72, Y 2.98, D 3.52, V 2.7, K 3.06, H 2.53, L 2.46, F 2.83, S 2.61, N 2.85, G 2.98, R 2.68, W 2.73, T 2.46
Q7: W 2.05, V 3.33, I 3.07, D 2.97, K 2.34, Y 2.27, N 3.14, S 2.81, P 3.25, L 2.85, E 3.56, H 3.61, F 2.95, R 2.93, G 3.25, T 3.3, C 3.13, A 3.47, M 2.74
